Measurements from patent publication US20200215180A1.

Experiments:
[1] = target: Hyperglycosylated Zika exodomain (HX), insect (Tni) cell expressed (Zika virus); experiment: ELISA
[2] = target: Hyperglycosylated dengue-1 exodomain (HX), insect (Tni) cell expressed (dengue virus serotype 1) (UniProt P27909); experiment: ELISA
[3] = target: Hyperglycosylated dengue-2 exodomain (HX), insect (Tni) cell expressed (dengue virus serotype 2) (UniProt P18356); experiment: ELISA
[4] = target: Hyperglycosylated dengue-3 exodomain (HX), insect (Tni) cell expressed (dengue virus serotype 3) (UniProt Q6YMS4); experiment: ELISA
[5] = target: Hyperglycosylated dengue-4 exodomain (HX), insect (Tni) cell expressed (dengue virus serotype 4) (UniProt P09866); experiment: ELISA
[6] = target: Hyperglycosylated exodomain D1 (from pCRO21), HEK293-expressed (dengue virus serotype 1) (UniProt P27909); experiment: ELISA
[7] = target: Hyperglycosylated exodomain D2 (from pCRO22), HEK293-expressed (dengue virus serotype 2) (UniProt P18356); experiment: ELISA
[8] = target: Hyperglycosylated exodomain D3 (from pCRO23), HEK293-expressed (dengue virus serotype 3) (UniProt Q6YMS4); experiment: ELISA
[9] = target: Hyperglycosylated exodomain D4 (from pCRO24), HEK293-expressed (dengue virus serotype 4) (UniProt P09866); experiment: ELISA
[10] = target: Hyperglycosylated exodomain Zika (from pCRO28), HEK293-expressed (Zika virus); experiment: ELISA
[11] = target: wild-type insect cell expressed Zika exodomain antigen (Zika virus); experiment: ELISA
VLPs = experiment: competition ELISA, 4G2 in solution phase at 10 micrograms per ml

Row | Substance | absorbance [1] [absorbance] | absorbance [2] [absorbance] | absorbance [3] [absorbance] | absorbance [4] [absorbance] | absorbance [5] [absorbance] | absorbance [6] [absorbance] | absorbance [7] [absorbance] | absorbance [8] [absorbance] | absorbance [9] [absorbance] | absorbance [10] [absorbance] | absorbance [11] [absorbance] | % inhibition (VLPs) [%]
1 | fusion-loop antibody 4G2 (The Native Antigen Company AbFLAVENV-4G2) | 0.1 | 0.1 | 0.1 | 0.1 | 0.1 | 0.1 | 0.1 | 0.1 | 0.1 | 0.1 | 0.9 | 80
2 | ZKA78 (antibody) | 0 | 0 | 0 | 0 | 0 | 0 | 0 | 0 | 0 | 0 | 1.4 | –
3 | ZV67 anti-Zika neutralizing antibody (The Native Antigen Company MAB12125) | 1.5 | 0.1 | 0.1 | 0.1 | 0.1 | 0.1 | 0 | 0 | 0 | 1.1 | 1.2 | –
4 | ZKA64 (antibody) | 0.7 | 0.2 | 0.2 | 0.2 | 0.1 | 0.1 | 0.1 | 0.1 | 0.1 | 0.9 | 0.8 | –
5 | Aalto Bioreagents anti-Zika antibody AZ1176-0302156-Lot3889 | 2 | 0.2 | 0.1 | 0.3 | 0.1 | 0.1 | 0.1 | 0.1 | 0.1 | 3.1 | 1 | –
6 | ZV48 anti-Zika neutralizing antibody (The Native Antigen Company MAB12124) | 1.1 | 0 | 0 | 0 | 0 | 0 | 0 | 0 | 0 | 1.2 | 1.1 | –
